{"source": "the DeepSol protein solubility set", "data": [{"test": "soluble on expression in E. coli; label from the status in PepcDB or PDB records", "values": [{"sequence": "SPFMFRPRKQVFQTQGAAVSSMAQTLLPNDLASKAMGSAFTALLDANEDAQKAMKIIKTLSSLSDAWENVKETLNNPEFWKQLLSRCVQLIAGMTIAVMHPDPLTLLCLGTLTAAEITSQTSLCEEIAAKFKTIFITPPPRFPTISLFQQQSPLKQVNDIFSLAKNLDWAVKTVEKVVDWFGTWIVQEEKEQTLDQLLQRFPEHAKRISDLRNGMAAYVECKESFDFFEKLYNQAVKEKRTGIAAVCEKFRQKHDHATARCEPVVIVLRGDAGQGKSLSSQVIAQAVSKTIFGRQSVYSLPPDSDFFDGYENQFAAIMDDLGQNPDGSDFTTFCQMVSTTNFLPNMASLERKGTPFTSQLVVATTNLPEFRPVTIAHYPAVERRITFDYSVSAGPVCSKTEAGYKVLDVERAFRPTGEAPLPCFQNNCLFLEKAGLQFRDNRTKEIISLVDVIERAVARIERKKKVLTTVQTLVAQ", "soluble on expression in E. coli": "soluble"}, {"sequence": "MGSDKIHHHHHHMFAQVHYPESLSGEELDEYLFKGWFRNGQRIFTTNFLNFDQKIYSAVWLRIHLQSIKSIHALDKLAKRNSRFKITIQPASITPEKEALFEQYKTGVDFTASQSLHTLLFGDSTVDIYNTLELLIHDGNKLIGVGYFDTGKDCAAGITSFYDHAYKKNSLGKYIIMQKIKYCIDQQYSYFYPGYFVPNYPAFDYKLSIGTETLEYLSLSKNTWVSIQAFVTNEDPFQVMLKKLKEFQSVCANYGIEQQIYQYSFFEANIIPSLRGLHLFDFPVFVYLFSEQEDVVNPMVVFDVVNQCYHLIECRSIWKADESIQEEGFYSSHLLKMEKHICSALTATEMSTIIMRSIEESSTFR", "soluble on expression in E. coli": "not soluble"}, {"sequence": "MRRVQSNTLDVGIDVHLKNWSTAILSKHSVLRRFLQVDCEGPTLISYIVAKHLAHASRGTISPYRTNGSAYGGFAIYMYLLIKMR", "soluble on expression in E. coli": "not soluble"}, {"sequence": "MRLRSMTKVLVLGARFGGLSAAYALKRLAGNKAEIKVINNTRFSYFRPALPHVATGVINENDVMVDLTKALPEKRINFQQGTVEKIDASGGLVYYTKPDGDKAEEDYDYLIIALGAHLGTELVKGWDKYGYSVCELDYALKLREKLKDFKGGTIAIGSGLFYQGKSPKPKVPENYVPVADAACEGPIFEMSLMLSGYFKKKGMLNKVKFVVFSPGEYLSDLSTMSRKIVREMYKQMGIELVDNFRIKEIRENEIADEAGKTIKADLTILIPPYTGNPALKNSTPDLIDDGGFVPTDLNMVSINYDNVYAVGDANSLTVPKLGYLAVKTGNIAAQHLATRLGVQVKVDQYYPTIICVADNPFEGFGIAVKDDTWYGGTTSIAAPSPINHIKKELFHKYFIWTKGDMALEKFLASWLEHHHHHH", "soluble on expression in E. coli": "soluble"}, {"sequence": "MENFPIISLDKVNGVERAATMEMIKDACENWGFFELVNHGIPREVMDTVEKMTKGHYKKCMEQRFKELVASKALEGVQAEVTDMDWESTFFLKHLPISNISEVPDLDEEYREVMRDFAKRLEKLAEELLDLLCENLGLEKGYLKNAFYGSKGPNFGTKVSNYPPCPKPDLIKGLRAHTDAGGIILLFQDDKVSGLQLLKDGQWIDVPPMRHSIVVNLGDQLEVITNGKYKSVMHRVIAQKDGARMSLASFYNPGSDAVIYPAPALVEKEAEENKQVYPKFVFDDYMKLYAGLKFQAKEPRFEAMKAMETDVKMDPIATV", "soluble on expression in E. coli": "soluble"}, {"sequence": "MQQLLAPVHAFLRCETPQTWIDVARASASLDELLIDHCNCELKAAQTAMFLLRRYALNAESGQSLLAWAKPYEEFVYHKDRDIEQFLARDVKKNELVAVLQPNQHFSFAQDLIPPLIRLIKEEFHHFEQVLELMHARQIPYRNIRAGRYAKGMMSHVTTHEKNILRDKLIVGAYIEARSCERFAKLAPYLDAELSKFYVSLLRSEARHFEDYLKLAQLVSSEDISERVAYFGEREAELIMAPDDEFHFHSGQPQAIKYSYA", "soluble on expression in E. coli": "not soluble"}, {"sequence": "MGSDKIHHHHHHMFNTAVKILYRSLIELTNHRLSSYLIKGFCESKISKPVIPLFSKHFRLNWDDVDGTAADYGSLSELFIRQINLERRPVSKEAHAVVSPVDGVVQTVGIINPNQTFTVKGKDYSFAELTGCKSADHQYNGGYFVVLYLSPRHYHRFHSPISCRYQKLAELGNRSYPVNQLGLKYGKDVLSKNYRFVYELNSGSRNVLMIPVGAMNINSIVQTNTRTELEIGEELGYFSFGSTVILVFEKDAFQPSAHLAEGQEVQVGELIGYEE", "soluble on expression in E. coli": "not soluble"}, {"sequence": "MAVIVLAGTIGAGKSSLTALIANRLGSEAFYESVDDNEVLPLFYAEPEKYAFLLQIYFLNKRFDSIKQALTHENNVLDRSIYEDSLLFHLNADLGRANETEVKVYDDLLQNMLQELPYAAHKKRPDLLVHIRISFPKMLERIKKRGRPYEQIETDPTLYDYYQMLNERYDQWYEDYDESPKIQIDGDKYDFVEDPEACQYVLALIEKKIEELER", "soluble on expression in E. coli": "not soluble"}, {"sequence": "MGSDKIHHHHHHMQTPSYFTPASFDFLTKLEHNNNREWFKANQAEYELQVRTPALHFIEAMSGSVVDLSPRLTAVAKKVGGSLMRPQRDSRFSKDKTPYKLNVGIQFRHFQAKDVHAPGLYLHLANDGCFIAAGIWHPESKALNAIRHCIDENPKGYQKAIANLTAAGFELSGDSLSRPPRGFDKSHPLIDELKRKDFIAIKDISLEQVCQLDLVDFCAQQYQYTSALMYYLCFALDLDF", "soluble on expression in E. coli": "not soluble"}, {"sequence": "MSFFVNRIWYGNHFLQWILVPFSWLYRIVIRTRRWYLQRFCQQLYPIPIIVVGNVTVGGVGKTPLVIEIAKKIQQKGLKVGIVSRGYKAAIKHFPYEVKLNDSAELVGDEPLMMARKINCPVVIAPKRNEAVRYLLDKHSVEIIISDDGLQHYKMGRSIEIVVIDGMRKLGNGFCLPAGPLREPDSRLKQVDFVIVNQGAAEGTYSMELIPKNIVRLSTQEEVSNDLFTSEVAAVAGIGNPQRFYSTLSQLGIKFNPYSYPDHHQFKPHDLNDIDLPVIMTEKDAVKCYSFSSDKLYYLPVEAKLNDSFWEAFWSHQQLQGYYLEHHHHHH", "soluble on expression in E. coli": "not soluble"}, {"sequence": "MFFTDESGIHHDPSKVRRLGLYNVPVDYPSRKLNVLASIPLFDGVPCFMFTYSNVNSEIFAEFLRLFRNSGPIVLILDNAKFHKNAYVFSVASQLGITLLFLPPYSPDLNPIELVWKDLKRWVNTYYNLEYTLDSMEEEFYYLFLRECSQTVMKFKKRL", "soluble on expression in E. coli": "soluble"}, {"sequence": "MAPWIGGKRNLARRICAILDRSPCLTYAEPFVGMAGIFLRRSSRPRAEVINDRGRDVANLFRILQRHYPQFLDTLRFQLTTRAEFERLGATDPDTLTDLERAARFLYLQRTAFGGKVSGRNFGVSSHRPGRFNLTTLEPMLEDLHSRLAGVIVECLDWADFLARYDRPETLFYLDPPYWGSETDYGRGLFQREDFGLMAERLAKLQGRFLLSINDVPQIRAIFGRFRITEVTTTYSISGSAKGNGTARPELLVSNWDIGEEG", "soluble on expression in E. coli": "not soluble"}, {"sequence": "GPGSMTEYLKDIGRTKPGDPMPPINLGPYDNPLLWNMLDPFGADRGHQRRPMSVSRDFMELHNVPIIFRDQCVHRWVPFHRCLKNLKPVTWGTANCHEFEEAWMICRAYETYRNQLLKTKFMELTKDYTAEDKKFFPSLLHLSVPTYMNSFYWTMAASQRLSGWDERDPANPMTWREPNRALMRAEFSPTNWEQGNLTNATGHKLITDDLVFDMVPGFPLPEDKRPETLY", "soluble on expression in E. coli": "not soluble"}, {"sequence": "MAHHHHHHMKWSAVCLLKRDFDAWAYSINWPQRKSHLPLLGSVSLTVEDIKFAYNAWCLLRLAMFFGTGHPKILSPLVNTTPSMDIMYGGNRLFYMHAEVGASLSRHKPKVALTPSHPDAQPVQSFPWRKVIREAGERRTGNEDCDGGVEIVLGMENGLSENVVSQCDYCLYIPQYGSIGSLSMISAMAIALHSAASAHVDQYMRDDDRVSPCSSRGHMPLSNGSLKVTKGNNLPHETNLLSLSNVEIAEILRARRMSYPMQLSVMVYNEFGDRNIGAIMRNANVFNCEQMIVLHRRKFNRRGALGTQHLIKTLFCSGVDDAQCQKSLEGYTIWLLYQYYPYLKIYEDPNGDEDATFIRPESTLLQEWLQGSYGMNPDHPMMNFHASHMIGTDVYLDDSDSVHAAVRHAANEGYRGIVLVVPEEGASFQRDIVKKARRIAYVVHPDRLARNVQRGLNGALSSAIALERLRTAIDGLQ", "soluble on expression in E. coli": "not soluble"}, {"sequence": "SLSPKFKTIIIDDIPSCVEDIKKIILKDKRFEVVATASNGLEGVDQIRLHNPDLVLTDIEMPVMNGFDMVIGLREMLDLTPTIIFITVYDQYAIQAIRCSAFDFILKTGLDQELPMALNEYVKKRAAKQPLLSKQIESLIKSFERNKQIIIRSNICDNFINPMDIIYISTSKNHANSIYLKNGECIATNQSLSHFEKILSETDFFRLNKSNIININFIKEIRKETNAFRRKYVYMKYTEADIKLAIPPGKYAKLFDFIEENSSEG", "soluble on expression in E. coli": "not soluble"}, {"sequence": "RAKGRFFYDKTSSQQPAIIVLSGSDGRIEKAQNIAQLLASHGFTTLALAYFGLEGLASHLEKIPLEIIQEAIDYLKKSPYADSIRLGLYGRSKGAEFALLAASHYADFKCLVLNSPSYLCLEGLKQWRNSKTSSWTYQGQELPYHPFLWKDFFQRLILKKDLKNINHQAVIPVEKINGSLLLLVSKKDEVWDAYGSAITIVNRLQQKRFKYPYQVESYENCGHMMTVAYQPNHRYKKVALEKIMADTNDSWQKTL", "soluble on expression in E. coli": "not soluble"}, {"sequence": "MGSDKIHHHHHHMINLNGNSSSSRQVTFITHPSIQSKAFASYLSETLMAPVVLQNINKPLAQRLAKDSVILFDIAVSNKKLNGVWRDIIRLQADNPRLLIINSAQKYELYEMAQWPALYGVFRHDDDESRLIEGVKAVLNGEQTAELSVMHPAMYAADHASTPVENSPLTERECEILNELRCGATNLDIARALFISENTVRTHLYNVFRKLSVKNRTQAVSWANEHLRH", "soluble on expression in E. coli": "not soluble"}, {"sequence": "MSLEPIGNVIKKIVKERNLGSKEDILNQVLQDPDINAFLQANKAKIDQKMIKNSMSGLYEFYSQKRNPSKVMAGYAPQLFLNGKVIDVRYAPTQAKVAQDRKRAAKKRLHLIDLPGRLHDVELSKIDITDDRNQVLTLIYDFLNKYSKDSHQQGLYLSGDFGVGKTYILAGLANYVVTNMEKDVVFLHVPTFIAGLASHFGDNSLQDEIRRLSECDLLILDDIGAETLSQWSRDDVLGVILQARMDNVLPTFFSSNLDMEALESHFEETRNATDPVKARRLMQRIRFLAKEVVVSGPDRRNSLREGHHHHHH", "soluble on expression in E. coli": "soluble"}, {"sequence": "MPNKNTQEYWEERGRKAIENELKRDKTKAEEIERILNMMIKRIEKEINAFIVKYGDFAGVTLQEAQKIIDEFDVKAFQEEAKRLVENKDFSDRANEELKKYNTKMYVSREQMLKIQIEFLIAYATAQTELSMREYFESTAYRVFSDQAGILGEGVQVAKEVIDTIVDTQFHGVVWSERLWTNTEAMKQEVEEIIANVVIRGRHPNEYVKDMRKHLNKFEGTARQKTAAIKSLLYTESARVHAQSSIDSMKEISPEGYYMYIAKIDNRTTKVCKGLNGEIFKVKDAKIGVNFYPMHINCRSDCALLPKSMWPKKPSKKRKTKYFGGKVKSGD", "soluble on expression in E. coli": "not soluble"}, {"sequence": "MRKMKTERAKEILVQLLKIPSPSGREDRVALYIMEFLHKLNYDVHIESDGEIIDLVVNPGAELFFEVHMDTIDPRAEPFVRGNIVYGTGASDIKGGIASILLMLEQLRKEGKDLNVGIVFVSDEEKGGRGSALFMERYRPKMAVVLEPTDLEVHIAHAGNIEAYFEVDGKEAHGACPESGINAIEQTFEMLQKLKDLEPFKAKGKYFDPHIGIQELICENPYYLIPALCKGRLEARLLPDQEVEDILDLIDPILDEYTVKYEYTEIWDGYELSEDEEIVQIAKSAMDMVGLDEFGAMRSWTDAINFTYNGTKTIVFGPGNLDISHTKQERIDVRDVVKASEFLLAVNEIFGNKS", "soluble on expression in E. coli": "soluble"}, {"sequence": "SRRLEDLHPDLQPLAHSFLRRCTDAGLDVLIYCTYRSGAEQDQLYAQGRKGSPGPIVTNARAGQSAHNFTIQNRPAARAFDAVPMVGGKPQWDQKHPHWQIMGRIGTELG", "soluble on expression in E. coli": "not soluble"}]}]}
